Measurements from the RNAGym collection of RNA variant scans (doi:10.1101/gr.219683.116).

B1: mRNA-splicing (parent)
chain: AGUUGCUGCUGGGAGCUCCAGCACAGUGAAAUGGACAGAAGGGCAGAGCAA

Variants of: B1
Experiment: exon inclusion enrichment index; higher = more inclusion; WT1 exon 5 minigene, HEK293

Variant | exon inclusion enrichment index
AGUUACCACCGGGAGCAUCAGCACAGUGAAAUGGACAGAAGGGCAGAGCAA [G5A U7C G8A U10C U17A C18U] | 1.52
AGUUCAUCCAGGGAGCUCCAGCACAGUGAAAUGGACAGAAGGGCAGAGCAA [G5C C6A G8C U10A] | 0.77
AGUUCACGUAGGGAGCUCCAGCACAGUGAAAUGGACAGAAGGGCAGAGCAA [G5C C6A U7C C9U U10A] | 0.0237
AGUUACCACCGGGAGCCCCAGCACAGUGAAAUGGACAGAAGGGCAGAGCAA [G5A U7C G8A U10C U17C] | 1.62
AGUUACCACCGGGAGCGCCAGCACAGUGAAAUGGACAGAAGGGCAGAGCAA [G5A U7C G8A U10C U17G] | 1.81
AGUUCAUUCAGGGAGCUCCAGCACAGUGAAAUGGACAGAAGGGCAGAGCAA [G5C C6A G8U U10A] | 0.0451
AGUUACCGCCGGGAGCUCCAGCACAGUGAAAUGGACAGAAGGGCAGAGCAA [G5A U7C U10C] | 4.21
AGUUACCUUCGGGAGCUCCAGCACAGUGAAAUGGACAGAAGGGCAGAGCAA [G5A U7C G8U C9U U10C] | 1.17
AGUUCACAUAGGGAGCUCCAGCACAGUGAAAUGGACAGAAGGGCAGAGCAA [G5C C6A U7C G8A C9U U10A] | 0.0185
AGUUCACAUCGGGAGCUCCAGCACAGUGAAAUGGACAGAAGGGCAGAGCAA [G5C C6A U7C G8A C9U U10C] | 2.03
AGUUCACAUGGGGAGCUCCAGCACAGUGAAAUGGACAGAAGGGCAGAGCAA [G5C C6A U7C G8A C9U U10G] | 0.525
AGUUCAAGAAGGGAGCUCCAGCACAGUGAAAUGGACAGAAGGGCAGAGCAA [G5C C6A U7A C9A U10A] | 0.906
AGUUCACACAGGGUCCUCCAGCACAGUGAAAUGGACAGAAGGGCAGAGCAA [G5C C6A U7C G8A U10A A14U G15C] | 0.0301
AGUUCACACAGGGUACUCCAGCACAGUGAAAUGGACAGAAGGGCAGAGCAA [G5C C6A U7C G8A U10A A14U G15A] | 0.00771
AGUUCACAGGGGGAGCUCCAGCACAGUGAAAUGGACAGAAGGGCAGAGCAA [G5C C6A U7C G8A C9G U10G] | 0.11
AGUUCACAGAGGGAGCUCCAGCACAGUGAAAUGGACAGAAGGGCAGAGCAA [G5C C6A U7C G8A C9G U10A] | 0.545
AGUUCACAGCGGGAGCUCCAGCACAGUGAAAUGGACAGAAGGGCAGAGCAA [G5C C6A U7C G8A C9G U10C] | 1.42
AGUUCACGGAGGGAGCUCCAGCACAGUGAAAUGGACAGAAGGGCAGAGCAA [G5C C6A U7C C9G U10A] | 1.72
AGUUCACACAGGGAGCUCCAGCACAGUGAAAUGGACAGAAGGGCAGAGCAA [G5C C6A U7C G8A U10A] | 0.12
AGUUCAUGCUGGGAGCUCCAGCACAGUGAAAUGGACAGAAGGGCAGAGCAA [G5C C6A] | 0.0337
AGUUACCACCGGGAGCUCCAGCACAGGAAAAUGGACAGAAGGGCAGAGCAA [G5A U7C G8A U10C U27G G28A] | 2.37
AGUUACCACCGGGAGCUCCAGCACAGGCAAAUGGACAGAAGGGCAGAGCAA [G5A U7C G8A U10C U27G G28C] | 1.17
AGUUACCACCGGGAGCUCCAGCACAGGUAAAUGGACAGAAGGGCAGAGCAA [G5A U7C G8A U10C U27G G28U] | 0.0167
AGUUACGGCCGGGAGCUCCAGCACAGUGAAAUGGACAGAAGGGCAGAGCAA [G5A U7G U10C] | 0.936
AGUUACCUAUGGGAGCUCCAGCACAGUGAAAUGGACAGAAGGGCAGAGCAA [G5A U7C G8U C9A] | 0.658
AGUUACCUCCGGGAGCUCCAGCACAGUGAAAUGGACAGAAGGGCAGAGCAA [G5A U7C G8U U10C] | 1.92

Variant | exon inclusion enrichment index
AGUUACCACCGGGAGCUCCAGCACAGUGAAAGAGACAGAAGGGCAGAGCAA [G5A U7C G8A U10C U32G G33A] | 0.707
AGUUACCACCGGGAGCUCCAGCACAGUGAAAGCGACAGAAGGGCAGAGCAA [G5A U7C G8A U10C U32G G33C] | 2.16
AGUUACCACCGGGAGCUCCAGCACAGUGAAAGUGACAGAAGGGCAGAGCAA [G5A U7C G8A U10C U32G G33U] | 0.923
AGUUACCACCGGGAGCUCCAGCACAGUGAAACAGACAGAAGGGCAGAGCAA [G5A U7C G8A U10C U32C G33A] | 1.18
AGUUACCACCGGGAGCUCCAGCACAGUGAAACUGACAGAAGGGCAGAGCAA [G5A U7C G8A U10C U32C G33U] | 1.75
AGUUACCACCGGGAGCUCCAGCACAGUGAAACCGACAGAAGGGCAGAGCAA [G5A U7C G8A U10C U32C G33C] | 3.24
AGUUACCCACGGGAGCUCCAGCACAGUGAAAUGGACAGAAGGGCAGAGCAA [G5A U7C G8C C9A U10C] | 1.56
AGUUACCACCGGGAGCUCCAGCACAGCCAAAUGGACAGAAGGGCAGAGCAA [G5A U7C G8A U10C U27C G28C] | 2.7
AGUUACCACCGGGAGCUCCAGCACAGCAAAAUGGACAGAAGGGCAGAGCAA [G5A U7C G8A U10C U27C G28A] | 2.31
AGUUACCACCGGGAGCUCCAGCACAGCUAAAUGGACAGAAGGGCAGAGCAA [G5A U7C G8A U10C U27C G28U] | 1.74
AGUUACCACCGGGAGCGACAGCACAGUGAAAUGGACAGAAGGGCAGAGCAA [G5A U7C G8A U10C U17G C18A] | 2.15
AGUUACCACCGGGAGCGUCAGCACAGUGAAAUGGACAGAAGGGCAGAGCAA [G5A U7C G8A U10C U17G C18U] | 1.66
AGUUACCACCGGGAGCGGCAGCACAGUGAAAUGGACAGAAGGGCAGAGCAA [G5A U7C G8A U10C U17G C18G] | 1.96
AGUUACCACGAGGAGCUCCAGCACAGUGAAAUGGACAGAAGGGCAGAGCAA [G5A U7C G8A U10G G11A] | 2.46
AGUUACCACGCGGAGCUCCAGCACAGUGAAAUGGACAGAAGGGCAGAGCAA [G5A U7C G8A U10G G11C] | 2.55
AGUUACCACGUGGAGCUCCAGCACAGUGAAAUGGACAGAAGGGCAGAGCAA [G5A U7C G8A U10G G11U] | 2.44
AGUUCAUCUCGGGAGCUCCAGCACAGUGAAAUGGACAGAAGGGCAGAGCAA [G5C C6A G8C C9U U10C] | 2.4
AGUUACCACCGGGAGCUCCAGCACAGCGAAAUGGACAGAAGGGCAGAGCAA [G5A U7C G8A U10C U27C] | 4.31
AGUUACCACCGGGAGCUCCAGCACAGGGAAAUGGACAGAAGGGCAGAGCAA [G5A U7C G8A U10C U27G] | 1.05
AGUUACCACCGGGAGCUCCAGCACAGAGAAAUGGACAGAAGGGCAGAGCAA [G5A U7C G8A U10C U27A] | 2.49
AGUUACCUACGGGAGCUCCAGCACAGUGAAAUGGACAGAAGGGCAGAGCAA [G5A U7C G8U C9A U10C] | 1.23
AGUUACCCUCGGGAGCUCCAGCACAGUGAAAUGGACAGAAGGGCAGAGCAA [G5A U7C G8C C9U U10C] | 1.27
AGUUCACAAGGGGAGCUCCAGCACAGUGAAAUGGACAGAAGGGCAGAGCAA [G5C C6A U7C G8A C9A U10G] | 0.428
AGUUCACAAAGGGAGCUCCAGCACAGUGAAAUGGACAGAAGGGCAGAGCAA [G5C C6A U7C G8A C9A U10A] | 0.239
AGUUCACAACGGGAGCUCCAGCACAGUGAAAUGGACAGAAGGGCAGAGCAA [G5C C6A U7C G8A C9A U10C] | 1.81
